Source: US20180155451A1 (published 2018)

Tests used:
[1] = molecular target: T1, FcγRIIa R (human, UniProt P12318 34-217); test: SPR; He/Con_2aR divided by He/Con_2b (FcγRIIb as reference)
T1 construct: extracellular domain; also called FcgRIIa R type; 2aR
T1 sequence (looked up): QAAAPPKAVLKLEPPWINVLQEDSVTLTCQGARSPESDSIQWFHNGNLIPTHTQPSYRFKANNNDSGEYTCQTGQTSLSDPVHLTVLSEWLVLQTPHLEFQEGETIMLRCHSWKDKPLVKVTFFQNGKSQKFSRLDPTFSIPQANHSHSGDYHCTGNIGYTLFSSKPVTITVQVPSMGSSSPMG

[2] = molecular target: T1, FcγRIIa R; test: SPR (Biacore), antibody captured, FcγR as analyte; relative binding
[3] = molecular target: T2, FcγRIIb (human, UniProt P31994 43-217); test: as above
T2 construct: extracellular domain; also called FcgRIIb; 2b
T2 sequence (looked up): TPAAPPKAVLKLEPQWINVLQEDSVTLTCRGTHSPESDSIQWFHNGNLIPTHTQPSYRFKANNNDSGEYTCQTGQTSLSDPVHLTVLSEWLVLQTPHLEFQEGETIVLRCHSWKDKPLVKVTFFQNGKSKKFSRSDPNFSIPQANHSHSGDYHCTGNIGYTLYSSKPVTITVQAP

[4] = molecular target: T3, FcγRIIIa extracellular domain with C-terminal His tag (human, UniProt P08637 17-208); test: SPR (Biacore), captured antibody, FcγR as analyte; relative to GpH7-A5/GpH7-B3/GpL16-k0 = 100
T3 construct: extracellular domain; also called FcgRIIIa; 3a; not shown: His tag at the C terminus
Method: (§1) Analysis of interaction between objective antibody and the FcγR was carried out using Biacore T100 (GE Healthcare). HBS-EP+ (GE Healthcare) was used as the running buffer, and the measurement temperature was set to 25° C. Chips produced by immobilizing the antigen peptide by the amine coupling method to a Series S Sencor Chip CM5 (GE Healthcare), or alternatively, chips produced by allowing preliminarily biotinylated antigen peptides to interact with and immobilize onto a Series S Sensor Chip SA (certified) (GE Healthcare) were used. Antibodies of interest were captured onto an antigen peptide-immobilized chip, and allowed to interact to each FcγR diluted with running buffer. To regenerate and repeatedly use the chip, the antibodies captured on the chip were washed off by reacting 10 mM glycine-HCl, pH 1.5.
(§2) The FcγR-binding activity of each antibody was assessed primarily using as an indicator the FcγR-binding activity and dissociation constant for FcγR.

[5] = molecular target: T4, FcγRIIb extracellular domain with C-terminal His tag (human, UniProt P31994 43-217); test: as above
T4 construct: extracellular domain; also called FcgRIIb; 2b; not shown: His tag at the C terminus
T4 sequence (looked up): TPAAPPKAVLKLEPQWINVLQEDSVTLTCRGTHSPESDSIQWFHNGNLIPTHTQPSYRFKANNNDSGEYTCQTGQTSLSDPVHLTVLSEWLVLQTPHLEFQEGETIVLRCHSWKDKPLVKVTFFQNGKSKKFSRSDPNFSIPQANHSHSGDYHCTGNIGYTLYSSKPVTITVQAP
Method: as §1, §2

T3 sequence (P08637 17-208): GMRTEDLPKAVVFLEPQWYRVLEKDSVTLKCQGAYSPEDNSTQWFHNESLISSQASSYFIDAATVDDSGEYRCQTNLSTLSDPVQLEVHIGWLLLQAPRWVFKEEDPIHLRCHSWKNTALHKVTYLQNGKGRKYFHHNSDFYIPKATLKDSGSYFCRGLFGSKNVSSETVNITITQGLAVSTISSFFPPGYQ

B1: GpH7-A5/GpH7-B3 variant S298_09D/GpL16-k0 (antibody, human IgG1, kappa)
heavy 1: not shown
heavy 2: not shown
light: DIVMTQSPLSLPVTPGEPASISCQASESLVHSNRNTYLHWYLQKPGQSPQLLIYKVSNRFSGVPDRFSGSGSGTDFTLKISRVEAEDVGVYYCSQNTHVPPTFGQGTKVEIERTVAAPSVFIFPPSDEQLKSGTASVVCLLNNFYPREAKVQWKVDNALQSGNSQESVTEQDSKDSTYSLSSTLTLSKADYEKHKVYACEVTHQGLSSPVTKSFNRGEC
notes: heterodimerized antibody, mutation in the GpH7-B3 chain only; also called He Ab
**Q.** How did the “IIaR/IIb (He_2aR/2b)” value [1] turn out when B1 was run?
**A.** 1.4 ratio

**Q.** And the “He/Con_2aR (IIaR binding)” value [2]?
**A.** 67.8 % of GpH7-A5/GpH7-B3/GpL16-k0 (=100)

**Q.** And the “He/Con_2b (IIb binding)” value [3]?
**A.** 48.3 % of GpH7-A5/GpH7-B3/GpL16-k0 (=100)

B2: GpH7-A5/GpH7-B3 variant Y296_05P/GpL16-k0 (antibody, human IgG1, kappa)
heavy 1: not shown
heavy 2: not shown
light: DIVMTQSPLSLPVTPGEPASISCQASESLVHSNRNTYLHWYLQKPGQSPQLLIYKVSNRFSGVPDRFSGSGSGTDFTLKISRVEAEDVGVYYCSQNTHVPPTFGQGTKVEIERTVAAPSVFIFPPSDEQLKSGTASVVCLLNNFYPREAKVQWKVDNALQSGNSQESVTEQDSKDSTYSLSSTLTLSKADYEKHKVYACEVTHQGLSSPVTKSFNRGEC
notes: as for B1
**Q.** Which “IIaR/IIb (He_2aR/2b)” value [1] does the source give for B2 here?
**A.** 1.3 ratio

**Q.** And the “He/Con_2aR (IIaR binding)” value [2]?
**A.** 47.7 % of GpH7-A5/GpH7-B3/GpL16-k0 (=100)

**Q.** What about the “He/Con_2b (IIb binding)” value [3] of the same binder?
**A.** 36.6 % of GpH7-A5/GpH7-B3/GpL16-k0 (=100)

B3: GpH7-A5/GpH7-B3 variant Y296_01G/GpL16-k0 (antibody, human IgG1, kappa)
heavy 1: not shown
heavy 2: not shown
light: DIVMTQSPLSLPVTPGEPASISCQASESLVHSNRNTYLHWYLQKPGQSPQLLIYKVSNRFSGVPDRFSGSGSGTDFTLKISRVEAEDVGVYYCSQNTHVPPTFGQGTKVEIERTVAAPSVFIFPPSDEQLKSGTASVVCLLNNFYPREAKVQWKVDNALQSGNSQESVTEQDSKDSTYSLSSTLTLSKADYEKHKVYACEVTHQGLSSPVTKSFNRGEC
notes: as for B1
**Q.** For B3, which “IIaR/IIb (He_2aR/2b)” value [1] is on record?
**A.** 1.21 ratio

**Q.** What about the “He/Con_2aR (IIaR binding)” value [2] of the same binder?
**A.** 95.8 % of GpH7-A5/GpH7-B3/GpL16-k0 (=100)

**Q.** What about the “He/Con_2b (IIb binding)” value [3] of the same binder?
**A.** 79.3 % of GpH7-A5/GpH7-B3/GpL16-k0 (=100)

B4: GpH7-A5/GpH7-B3 variant V266_16H/GpL16-k0 (antibody, human IgG1, kappa)
heavy 1: not shown
heavy 2: not shown
light: DIVMTQSPLSLPVTPGEPASISCQASESLVHSNRNTYLHWYLQKPGQSPQLLIYKVSNRFSGVPDRFSGSGSGTDFTLKISRVEAEDVGVYYCSQNTHVPPTFGQGTKVEIERTVAAPSVFIFPPSDEQLKSGTASVVCLLNNFYPREAKVQWKVDNALQSGNSQESVTEQDSKDSTYSLSSTLTLSKADYEKHKVYACEVTHQGLSSPVTKSFNRGEC
notes: as for B1
**Q.** Which “IIaR/IIb (He_2aR/2b)” value [1] does the source give for B4 here?
**A.** 1.34 ratio

**Q.** And the “He/Con_2aR (IIaR binding)” value [2]?
**A.** 76.5 % of GpH7-A5/GpH7-B3/GpL16-k0 (=100)

**Q.** What about the “He/Con_2b (IIb binding)” value [3] of the same binder?
**A.** 57.2 % of GpH7-A5/GpH7-B3/GpL16-k0 (=100)

B5: GpH7-A5/GpH7-B3 variant S298_03V/GpL16-k0 (antibody, human IgG1, kappa)
heavy 1: not shown
heavy 2: not shown
light: DIVMTQSPLSLPVTPGEPASISCQASESLVHSNRNTYLHWYLQKPGQSPQLLIYKVSNRFSGVPDRFSGSGSGTDFTLKISRVEAEDVGVYYCSQNTHVPPTFGQGTKVEIERTVAAPSVFIFPPSDEQLKSGTASVVCLLNNFYPREAKVQWKVDNALQSGNSQESVTEQDSKDSTYSLSSTLTLSKADYEKHKVYACEVTHQGLSSPVTKSFNRGEC
notes: as for B1
**Q.** With B5 as the binder, how does the “IIaR/IIb (He_2aR/2b)” value [1] read?
**A.** 1.34 ratio

**Q.** And the “He/Con_2aR (IIaR binding)” value [2]?
**A.** 86.3 % of GpH7-A5/GpH7-B3/GpL16-k0 (=100)

**Q.** And the “He/Con_2b (IIb binding)” value [3]?
**A.** 64.5 % of GpH7-A5/GpH7-B3/GpL16-k0 (=100)

B6: GpH7-A5/GpH7-B3 variant Y296_12R/GpL16-k0 (antibody, human IgG1, kappa)
heavy 1: not shown
heavy 2: not shown
light: DIVMTQSPLSLPVTPGEPASISCQASESLVHSNRNTYLHWYLQKPGQSPQLLIYKVSNRFSGVPDRFSGSGSGTDFTLKISRVEAEDVGVYYCSQNTHVPPTFGQGTKVEIERTVAAPSVFIFPPSDEQLKSGTASVVCLLNNFYPREAKVQWKVDNALQSGNSQESVTEQDSKDSTYSLSSTLTLSKADYEKHKVYACEVTHQGLSSPVTKSFNRGEC
notes: as for B1
**Q.** What does the source list for B6?
**A.** IIaR/IIb (He_2aR/2b) [1]: 1.25 ratio; He/Con_2aR (IIaR binding) [2]: 99.6 % of GpH7-A5/GpH7-B3/GpL16-k0 (=100); He/Con_2b (IIb binding) [3]: 79.5 % of GpH7-A5/GpH7-B3/GpL16-k0 (=100)

B7: GpH7-A5/GpH7-B3 variant Y296_03V/GpL16-k0 (antibody, human IgG1, kappa)
heavy 1: not shown
heavy 2: not shown
light: DIVMTQSPLSLPVTPGEPASISCQASESLVHSNRNTYLHWYLQKPGQSPQLLIYKVSNRFSGVPDRFSGSGSGTDFTLKISRVEAEDVGVYYCSQNTHVPPTFGQGTKVEIERTVAAPSVFIFPPSDEQLKSGTASVVCLLNNFYPREAKVQWKVDNALQSGNSQESVTEQDSKDSTYSLSSTLTLSKADYEKHKVYACEVTHQGLSSPVTKSFNRGEC
notes: as for B1
**Q.** Which “IIaR/IIb (He_2aR/2b)” value [1] does the source give for B7 here?
**A.** 1.21 ratio

**Q.** And the “He/Con_2aR (IIaR binding)” value [2]?
**A.** 96.2 % of GpH7-A5/GpH7-B3/GpL16-k0 (=100)

**Q.** And the “He/Con_2b (IIb binding)” value [3]?
**A.** 79.3 % of GpH7-A5/GpH7-B3/GpL16-k0 (=100)

B8: GpH7-A5/GpH7-B3 variant G236_09D/GpL16-k0 (heterodimerized antibody, He Ab) (antibody, human IgG1, kappa)
heavy 1: not shown
heavy 2: not shown
light: DIVMTQSPLSLPVTPGEPASISCQASESLVHSNRNTYLHWYLQKPGQSPQLLIYKVSNRFSGVPDRFSGSGSGTDFTLKISRVEAEDVGVYYCSQNTHVPPTFGQGTKVEIERTVAAPSVFIFPPSDEQLKSGTASVVCLLNNFYPREAKVQWKVDNALQSGNSQESVTEQDSKDSTYSLSSTLTLSKADYEKHKVYACEVTHQGLSSPVTKSFNRGEC
notes: Anti-glypican-3 IgG1; the alteration is in the GpH7-B3 chain only; also called G236D
**Q.** Which “He/Con_3a (IIIa binding)” value [4] does the source give for B8 here?
**A.** 71.2 % of HeCon Ab

**Q.** And the “He/Con_2b (IIb binding)” value [5]?
**A.** 167 % of HeCon Ab
